From US20150004189A1

Experiments:
HLA-DP DPB1*0501 (human) = experiment: inhibition of radiolabeled peptide binding to purified HLA-DP
HLA-DP DPB1*0101 (human) = experiment: as above
HLA-DP DPB1*0402 (human) = experiment: as above
HLA-DP DPB1*0201 (human) = experiment: as above
HLA-DP DPB1*2001 (human) = experiment: as above
[1] = biological target: HLA-DR molecule DRB1*0162 (so in the source) (human); experiment: radiolabeled-peptide competition on purified HLA class II
[2] = biological target: HLA DP molecule DPB1*2001 (human); experiment: inhibition of radiolabeled peptide binding to purified HLA DP
[3] = biological target: HLA-DQ molecule DQB1*0503 (human); experiment: competition: inhibition of radiolabeled peptide binding to purified HLA
[4] = biological target: HLA-DQ molecule DQB1*0502 (human); experiment: as above
[5] = biological target: HLA DP molecule DPB1*1401 (human); experiment: inhibition of radiolabeled peptide binding to purified HLA DP
[6] = biological target: HLA-DQ molecule DQB1*0602 (human); experiment: competition: inhibition of radiolabeled peptide binding to purified HLA
[7] = biological target: HLA-DQ molecule DQB1*0202 (human); experiment: as above
[8] = biological target: HLA DP molecule DPB1*2001 (human); experiment: competition vs radiolabeled peptide, purified HLA-DP
[9] = biological target: HLA DP molecule DPB1*1401 (human); experiment: as above
[10] = biological target: HLA DP molecule DPB1*0501 (human); experiment: as above
HLA-DP DPB1*1401 (human) = experiment: inhibition of radiolabeled peptide binding to purified HLA-DP

Substance	IC50 (HLA-DP DPB1*0501 (human)) [µM]	IC50 (HLA-DP DPB1*0101 (human)) [µM]	IC50 (HLA-DP DPB1*2001 (human)) [µM]	other results
Aln g 1 (11-25) peptide 3324.0004	0.493	0.085	–	IC50 (HLA-DP DPB1*0402 (human)): 1.5 µM
Aln g 1 (16-30) peptide 3324.0003	–	–	2.57	IC50 (HLA-DP DPB1*0201 (human)): 0.036 µM
Aln g 1 (111-125) peptide 3324.0007	0.0033	0.391	–	–
Alt a 1 peptide 3324.0013 (position 111)	–	–	–	IC50 [1]: 0.856 µM
Alt a 1 peptide 3324.0014 (position 116)	–	–	–	IC50 [1]: 0.504 µM
Alt a 1 peptide 3324.0015 (position 6)	–	–	–	IC50 [1]: 0.871 µM
Alt a 1 peptide 3324.0017 (position 11)	–	–	–	IC50 [1]: 0.956 µM
Alt a 1 peptide, position 6 (Peptide ID 3324.0015)	–	–	–	IC50 [2]: 2.09 µM
Alt a 1 peptide, position 6, Peptide ID 3324.0015	–	–	–	IC50 [3]: 7.26 µM; IC50 [4]: 7.02 µM
Alt a 1 peptide, position 11 (Peptide ID 3324.0017)	–	–	–	IC50 [2]: 0.184 µM; IC50 [5]: 0.125 µM
Alt a 1 peptide, position 11, Peptide ID 3324.0017	–	–	–	IC50 [6]: 0.021 µM; IC50 [3]: 0.223 µM; IC50 [4]: 8.01 µM
Alt a 1 peptide, position 111 (Peptide ID 3324.0013)	–	–	–	IC50 [5]: 4.37 µM
Alt a 1 peptide, position 111, Peptide ID 3324.0013	–	–	–	IC50 [3]: 19.4 µM; IC50 [7]: 8.36 µM
Alt a 1 peptide, position 116 (Peptide ID 3324.0014)	–	–	–	IC50 [2]: 0.2 µM
Alt a 1 peptide, position 116, Peptide ID 3324.0014	–	–	–	IC50 [6]: 2.23 µM; IC50 [4]: 8.97 µM
Alt a 1 peptide, position 141 (Peptide ID 3324.0011)	–	–	–	IC50 [2]: 8.83 µM; IC50 [5]: 3.39 µM
Alt a 1 peptide, position 141, Peptide ID 3324.0011	–	–	–	IC50 [6]: 4.95 µM; IC50 [3]: 9.1 µM; IC50 [4]: 6.01 µM; IC50 [7]: 31.7 µM
Alt a 1 peptide, position 143 (Peptide ID 3324.0016)	–	–	–	IC50 [2]: 8.65 µM; IC50 [5]: 1.43 µM
Alt a 1 peptide, position 143, Peptide ID 3324.0016	–	–	–	IC50 [6]: 0.07 µM; IC50 [4]: 7.75 µM; IC50 [7]: 7.02 µM
Alt a 5 peptide, position 51, … (Peptide ID 3324.0065)	–	–	–	IC50 [8]: 7.5 µM; IC50 [9]: 0.05 µM
Alt a 6 peptide, position 161, … (Peptide ID 3324.0073)	–	–	–	IC50 [8]: 7.64 µM
Alt a 7 peptide, position 6, … (Peptide ID 3324.0085)	–	–	–	IC50 [8]: 1.29 µM; IC50 [10]: 0.047 µM

Substance	IC50 (HLA-DP DPB1*0501 (human)) [µM]	IC50 (HLA-DP DPB1*0101 (human)) [µM]	IC50 (HLA-DP DPB1*2001 (human)) [µM]	other results
Alt a 7 peptide, position 190, … (Peptide ID 3324.0080)	–	–	–	IC50 [8]: 0.077 µM; IC50 [9]: 0.938 µM
Bet v 1 (96-110) peptide 3324.0353	–	4.09	5.92	IC50 (HLA-DP DPB1*1401 (human)): 5.98 µM
Bet v 1 (111-125) peptide 3324.0352	0.0022	0.279	13	IC50 (HLA-DP DPB1*1401 (human)): 7.59 µM
Bet v 6 (206-220) peptide 3324.0387	–	–	0.0033	IC50 (HLA-DP DPB1*1401 (human)): 3.77 µM
Bet v 6 (211-225) peptide 3324.0386	1.05	1.61	–	–
Cha o 1 (86-100) peptide 3324.0517	0.011	–	0.083	–
Cha o 1 peptide 96-110 … (Peptide ID 3324.0523)	7.5	–	4.96	IC50 (HLA-DP DPB1*1401 (human)): 0.525 µM
Cla h 5 peptide, position 6, … (Peptide ID 3324.0576)	–	–	–	IC50 [8]: 0.143 µM
Cla h 6 peptide, position 161, … (Peptide ID 3324.0588)	–	–	–	IC50 [8]: 29.6 µM; IC50 [9]: 9.67 µM
Cla h 8 peptide, position 151, … (Peptide ID 3324.0603)	–	–	–	IC50 [9]: 0.036 µM
Cup a 1 peptide 66-80 … (Peptide ID 3324.0604)	–	6.94	23.9	IC50 (HLA-DP DPB1*1401 (human)): 0.029 µM
Cup a 1 peptide 71-85 … (Peptide ID 3324.0607)	–	0.692	13.6	IC50 (HLA-DP DPB1*1401 (human)): 3.58 µM
Cup a 1 peptide 316-330 … (Peptide ID 3324.0606)	–	8.23	25.5	IC50 (HLA-DP DPB1*1401 (human)): 0.155 µM
Cup s 1 peptide 86-100 … (Peptide ID 3324.0615)	–	0.676	9.18	–
Cup s 1 peptide 91-105 … (Peptide ID 3324.0618)	0.179	0.806	35.4	IC50 (HLA-DP DPB1*0402 (human)): 0.075 µM
Cup s 1 peptide 96-110 … (Peptide ID 3324.0624)	–	2.36	25.7	–
Dac g 2 peptide 11-25 … (Peptide ID 3324.0657)	–	–	6.27	IC50 (HLA-DP DPB1*1401 (human)): 8.1 µM
Dac g 2 peptide 16-30 … (Peptide ID 3324.0658)	0.717	1.35	–	IC50 (HLA-DP DPB1*1401 (human)): 32 µM
Dac g 4 peptide 1-15 … (Peptide ID 3324.0663)	1.44	–	–	–
Der f 1 (136-150) peptide 3324.0666	–	8.43	–	–
Der p 1 (131-145) peptide 3324.0832	–	–	0.0077	–
Der p 1 (136-150) peptide 3324.0829	4.93	1.21	0.449	IC50 (HLA-DP DPB1*1401 (human)): 9.42 µM

Substance	IC50 (HLA-DP DPB1*0501 (human)) [µM]	IC50 (HLA-DP DPB1*0101 (human)) [µM]	IC50 (HLA-DP DPB1*2001 (human)) [µM]	other results
Der p 1 (176-190) peptide 3324.0831	35.2	–	–	–
Der p 1 (226-240) peptide 3324.0840	4	–	0.31	IC50 (HLA-DP DPB1*0402 (human)): 0.032 µM
Der p 4 (86-100) peptide 3324.0981	–	–	0.017	IC50 (HLA-DP DPB1*0201 (human)): 0.22 µM
Der p 4 (96-110) peptide 3324.0987	3.45	15.5	2.93	–
Der p 4 (251-265) peptide 3324.0976	–	–	0.247	–
Der p 4 (321-335) peptide 3324.0977	5.07	1.64	1	–
Der p 4 (381-395) peptide 3324.0986	–	0.324	–	–
Der p 4 (386-400) peptide 3324.0978	2.23	–	9.01	–
Der p 4 (411-425) peptide 3324.0980	–	0.4	0.0069	IC50 (HLA-DP DPB1*1401 (human)): 0.703 µM; IC50 (HLA-DP DPB1*0402 (human)): 1.51 µM
Der p 4 (416-430) peptide 3324.0974	0.013	0.0091	0.0035	–
Der p 4 (476-490) peptide 3324.0975	0.076	0.323	0.379	IC50 (HLA-DP DPB1*0402 (human)): 0.083 µM
Der p 4 (482-496) peptide 3324.0971	–	0.173	0.509	IC50 (HLA-DP DPB1*1401 (human)): 11.4 µM; IC50 (HLA-DP DPB1*0402 (human)): 0.066 µM
Lol p 2 peptide 51-65 … (Peptide ID 3324.1139)	–	–	7.94	–
Lol p 2 peptide 56-70 … (Peptide ID 3324.1140)	12.4	–	–	–
Lol p 11 peptide 111-125 … (Peptide ID 3324.1138)	0.00025	0.205	0.223	–
Lol p 11 peptide 116-130 … (Peptide ID 3337.0029)	0.051	–	0.0081	IC50 (HLA-DP DPB1*1401 (human)): 18.1 µM
Que a 1 peptide 11-25 … (Peptide ID 3324.1587)	0.341	0.114	–	–
Que a 1 peptide 16-30 … (Peptide ID 3324.1585)	0.08	0.017	0.274	–
Que a 1 peptide 21-35 … (Peptide ID 3324.1588)	0.242	0.141	3.49	–
Que a 1 peptide 141-155 … (Peptide ID 3324.1584)	0.031	0.021	1.3	IC50 (HLA-DP DPB1*1401 (human)): 0.04 µM
Sal k 1 1 peptide 191-205, … (Peptide ID 3324.1590)	–	0.922	0.558	IC50 (HLA-DP DPB1*1401 (human)): 1.92 µM
Sal k 1 1 peptide 321-335, … (Peptide ID 3324.1589)	–	0.056	4.88	–
